Assay [1] concerns the target N-terminally FLAG-tagged mouse Ang2 (HEK293T conditioned medium) (mouse) (UniProt O35608). The experiment in a line: competition ELISA, periplasmic extract, FLAG-mAng2 on mTie2/Fc.
The target in assay [2] is FLAG tagged human Ang2 (Alexis Biochemicals) (human) (UniProt O15123). The assay is described as follows: AlphaScreen competition, periplasmic extract, FLAG-hAng2 / biotin-hTie2/Fc. (In Alpha technology, singlet oxygen from a donor bead excites a nearby acceptor bead.)
For assay [3], the target named is FLAG-tagged human Ang2 (human) (UniProt O15123). The assay is described as follows: competition ELISA: FLAG-hAng2 binding to coated hTie2-Fc. On the technique in general: ELISA stands for enzyme-linked immunosorbent assay.
In assay [4] the target is FLAG tagged human Ang2 (Alexis Biochemicals) (human) (UniProt O15123). The experiment in a line: competition ELISA, FLAG-hAng2 (0.02 nM) on coated hTie2/Fc.
Assay [5] shares this target. The assay is described as follows: competition ELISA, periplasmic extract, FLAG-hAng2 on hTie2/Fc.
For assay [6], the target named is FLAG-tagged recombinant human Ang1 (human) (UniProt Q15389). The assay is described as follows: ratio of IC50s in hAng1/hTie2 and hAng2/hTie2 competition ELISA.
Assay [7] deals with FLAG-tagged human Ang2 (human) (UniProt O15123). The assay is described as follows: competition ELISA: FLAG-hAng2 binding to coated hTie2-Fc. This is another data set of the same source.
Assay [8] deals with FLAG tagged human Ang2 (Alexis Biochemicals) (human) (UniProt O15123). The assay is described as follows: competition ELISA, FLAG-hAng2 (0.02 nM) on coated hTie2/Fc. This is another data set of the same source.
The target of assay [9] is FLAG-tagged recombinant human Ang1 (Alexis Biochemicals) (human) (UniProt Q15389). The experiment in a line: competition ELISA, periplasmic extract, FLAG-hAng1 on hTie2/Fc.

Where two headings read alike, the source gives them in different places. Where only a bound is given, the exact number is not on record here.

What is called IC50 is the concentration that inhibits the measured activity by half.

Chain of N-terminally FLAG-tagged mouse Ang2 (HEK293T conditioned medium) (mouse) (O35608 19-496 limits assumed): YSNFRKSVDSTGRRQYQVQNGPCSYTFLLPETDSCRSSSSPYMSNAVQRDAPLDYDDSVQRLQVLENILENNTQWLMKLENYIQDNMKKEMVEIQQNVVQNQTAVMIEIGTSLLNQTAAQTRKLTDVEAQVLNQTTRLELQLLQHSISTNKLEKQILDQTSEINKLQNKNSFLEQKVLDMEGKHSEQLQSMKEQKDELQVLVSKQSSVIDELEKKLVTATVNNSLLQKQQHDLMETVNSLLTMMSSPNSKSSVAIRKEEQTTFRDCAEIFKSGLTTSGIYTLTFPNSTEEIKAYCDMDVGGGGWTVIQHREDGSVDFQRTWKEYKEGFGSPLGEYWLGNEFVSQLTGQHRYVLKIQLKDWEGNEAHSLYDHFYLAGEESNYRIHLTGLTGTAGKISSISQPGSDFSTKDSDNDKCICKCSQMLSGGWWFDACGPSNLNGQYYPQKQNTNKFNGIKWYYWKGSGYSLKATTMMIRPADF
Chain of FLAG-tagged recombinant human Ang1 (Alexis Biochemicals) (human) (Q15389 20-498 limits assumed): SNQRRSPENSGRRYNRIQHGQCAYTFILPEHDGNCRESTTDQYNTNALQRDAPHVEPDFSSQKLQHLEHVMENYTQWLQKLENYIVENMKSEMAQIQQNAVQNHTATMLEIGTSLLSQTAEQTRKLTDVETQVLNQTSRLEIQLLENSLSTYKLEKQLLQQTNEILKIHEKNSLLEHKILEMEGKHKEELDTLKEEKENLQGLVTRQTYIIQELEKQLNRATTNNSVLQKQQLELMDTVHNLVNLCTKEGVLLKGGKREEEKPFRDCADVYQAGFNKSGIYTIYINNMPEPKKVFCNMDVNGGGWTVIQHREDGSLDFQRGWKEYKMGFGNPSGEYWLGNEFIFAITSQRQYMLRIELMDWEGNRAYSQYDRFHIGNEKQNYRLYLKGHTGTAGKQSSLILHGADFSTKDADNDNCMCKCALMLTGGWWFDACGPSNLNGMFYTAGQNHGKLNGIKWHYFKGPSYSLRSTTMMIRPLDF
Chain of FLAG-tagged recombinant human Ang1 (human) (Q15389 20-498 limits assumed): as above
Chain of FLAG-tagged human Ang2 (human) (O15123 19-496): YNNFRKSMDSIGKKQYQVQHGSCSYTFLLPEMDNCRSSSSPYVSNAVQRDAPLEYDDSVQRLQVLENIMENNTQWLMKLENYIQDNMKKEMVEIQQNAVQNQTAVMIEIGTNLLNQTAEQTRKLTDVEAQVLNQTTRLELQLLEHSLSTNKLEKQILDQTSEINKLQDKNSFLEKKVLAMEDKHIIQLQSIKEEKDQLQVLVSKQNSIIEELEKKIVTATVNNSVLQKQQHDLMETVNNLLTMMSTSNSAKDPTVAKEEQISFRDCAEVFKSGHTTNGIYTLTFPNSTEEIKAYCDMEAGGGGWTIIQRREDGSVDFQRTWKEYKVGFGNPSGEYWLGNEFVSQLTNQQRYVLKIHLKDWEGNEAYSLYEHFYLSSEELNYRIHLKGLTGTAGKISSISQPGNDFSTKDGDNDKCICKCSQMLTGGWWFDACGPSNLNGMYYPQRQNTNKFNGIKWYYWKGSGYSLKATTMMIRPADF
Chain of FLAG tagged human Ang2 (Alexis Biochemicals) (human) (O15123 19-496): as above

B1: VHH 14A08 (VHH, not shown: small tags and cut ends)
VHH: EVQLVESGGGLVQAGGSLRLSCASSGFTFDDYAIGWFRQAPGKEREGVSCISSSDGSTYYADSVKGRFTISSDNAKNTVYLQMNSLKPEDTAVYYCAARPPFHSCSEYENDYWGQGTQVTVSS
Take B1: the % inh in [1] was determined as 4%; in assay [2], 52%.

B2: VHH 28D10 (VHH, not shown: small tags and cut ends)
VHH: EVQLVESGGGLVQAGGSLRLSCAASGFTLDDYAIGWFRQAPGKEREGVSCIRDSDGSTYYADSVKGRFTISSDNDKNTVYLQMNSLKPEDTAVYYCAAVPAGRLRFGEQWYPLYEYDAWGQGTQVTVSS
B2: the results for the half-maximal inhibitory concentration (IC50) in assay [3] and in [4] were 1.8 nM and 1.3 nM, respectively. In addition, the % inh in assay [5] was 118%; in assay [2], 89%. Moreover, the hAng1/hAng2 ratio in [6] is > 5680.

B3: VHH 00055 (VHH, not shown: small tags and cut ends)
VHH: EVQLVESGGGLVQAGGSLRLSCAASGFTLDDYAIGWFRQAPGKEREGVSSIRDNGGSTYYADSVKGRFTISSDNDKNTVYLQMNSLKPEDTAVYYCAAVPAGRLRFGEQWYPLYEYDAWGQGTLVTVSS
Take B3: the IC50 in assay [3] came out at 1.8 nM.

B4: VHH 00027 (VHH, not shown: small tags and cut ends)
VHH: EVQLVESGGGLVQAGGSLRLSCAASGFTLDDYAIGWFRQAPGKEREGVSSIRDNDGSTYYADSVKGRFTISSDNDKNTVYLQMNSLKPEDTAVYYCAAVPAGRLRFGEQWYPLYEYDAWGQGTLVTVSS
Take B4: the figures for the IC50 in [7] and in assay [3] were 0.672 nM and 0.7 nM, respectively.

B5: VHH 00042 (VHH, not shown: small tags and cut ends)
VHH: EVQLVESGGGLVQPGGSLRLSCAASGFTLDDYAIGWFRQAPGKEREGVSSIRDNDGSTYYADSVKGRFTISSDNSKNTVYLQMNSLRPEDTAVYYCAAVPAGRLRFGEQWYPLYEYDAWGQGTLVTVSS
In the case of B5, the IC50 in assay [7] is 0.646 nM; in [3] it was 0.7 nM.

B6: VHH 7G08 (VHH, not shown: small tags and cut ends)
VHH: EVQLVESGGGLVQPGGSLRLSCAASGFALDYYAIGWFRQVPGKEREGVSCISSSDGITYYVDSVKGRFTISRDNAKNTVYLQMNSLKPEDTAVYYCATDSGGYIDYDCMGLGYDYWGQGTQVTVSS
As to B6, the IC50 came out at 0.07 nM in assay [8] and 0.04 nM in assay [4].

B7: VHH 37A09 (VHH, not shown: small tags and cut ends)
VHH: EVQLMESGGGLVQPGGSLRLSCAASGFALDYYAIGWFRQVPGKEREGVSCISSSDGITYYVDSVKGRFTISRDNAKNTVYLQMNSLKPGDTAVYYCATDSGGYIDYDCMGLGYDYWGQGTQVTVSS
In assay [4], B7 displayed an IC50 of 0.1 nM.

B8: VHH 37F02 (VHH, not shown: small tags and cut ends)
VHH: EVQLVESGGGLVQPGGSLRLSCAASGFALDYYAIGWFRQAPGKEREGVSCISSSDGITYYVDSVKGRFTISRDNAKNTVYLQMNSLKPEDTAVYYCATDSGGYIDYDCMGLGYDYWGQGTQVTVSS
As to B8, the IC50 in assay [7] was 0.077 nM. The IC50 in assay [4] is 0.08 nM. In assay [6], the hAng1/hAng2 IC50 ratio was > 130000 and the hAng1/hAng2 ratio is > 130000.

B9: VHH 25G04 (VHH, not shown: small tags and cut ends)
VHH: EVQLVESGGGLVQPGGSLRLSCAASGFTFGSYDMSWVRQAPGKGPEWVSAINSRGGSTYYADSVKGRFTISRDNAKNTLYLQMNSLKPEDTAVYYCATDPYSLSYYGYPLYDYWGQGTQVTVSS
As for B9, the % inh came out at 87% in assay [5], 9% in assay [1] and 90% in [2].

B10: VHH 29B08 (VHH, not shown: small tags and cut ends)
VHH: EVQLVESGGGVVQAGDSVRLSCAASGPTFRSYTMAWFRQTPGKERDIVAAISSSLGRTYYADSVKGRFQILRDNAKETVWLQMNSLKPEDTAVYICAASRSLNLAYTTKPYDYWGQGTQVTVSS
B10: the % inh in assay [5] came to 112%; in assay [1], 63%; in assay [2], 60%.

B11: VHH 1D01 (VHH, not shown: small tags and cut ends)
VHH: EVQLVESGGGLVQAGGSLRLSCAASGFTFDDYALGWFRQAAGKEREGVSCIRCSDGSTYYADSVKGRFTISSDNAKNTVYLQMNSLKPEDTAVYYCAASIVPRSKLEPYEYDAWGQGTQVTVSS
For B11, the half-maximal inhibitory concentration (IC50) in [7] stood at 6.6 nM; in [8], 3.4 nM; in assay [4], 6.2 nM.

B12: VHH 32H10 (VHH, not shown: small tags and cut ends)
VHH: EVQLVESGGGLVQAGGSLRLSCAASGFDFEDYDMGWFRQAPGKEREGVSYISSSDGSTYYTDSVKGRFTISSDNAKNTVYLQMNSLIPEDTAVYYCAARPWTRRVYGSSWLARSLDEYEYDYWGQGTQVTVSS
For the molecule B12, the IC50 in assay [4] turned out to be 4 nM. Besides, the % inh in [9] stood at 17%; in assay [5], 112%; in [2] it was 55%.

B13: VHH 25F01 (VHH, not shown: small tags and cut ends)
VHH: EVQLVESGGGLVQAGGSLRLSCAVSGLPFDDYVIGWFRQAPGKEREGVSCISSSDGSTYYADSVKGRFTISSDNAKNTVYLQMNSLKPEDTAAYYCAAGGPRINIATMTCSHDEYEYDYWGQGTQVTVSS
With B13, the IC50 in [8] came to 6.5 nM. Besides, the % inh in assay [9] was found to be 14%; in [5], 85%; in assay [2] it was 67%.

B14: VHH 11B07 (VHH, not shown: small tags and cut ends)
VHH: EVQLVESGGGLVQVGDSLRLSCAASGRTFSTYLMVGWFRQAPGKEREFAAGIWSSGDTAYADSVRGRFTISRDNAKNTVYLQMNSLKTEDTAVYYCAGSYDGNYYIPGFYKDWGQGTQVTVSS
Regarding B14, the results for the half-maximal inhibitory concentration (IC50) in assay [8] and in [4] were 5.4 nM and 14 nM, respectively.

B15: VHH 25D08 (VHH, not shown: small tags and cut ends)
VHH: EVQLVESGGGLVQAGGSLRLSCAASGFTFDDYAIGWFRQAPGKDLEGVSCISSSDGSTYYADSVKGRFTISSDNAKNTVYLQMNSLKPEDTAVYYCAAVNGLGPFSVPVPVYDFWGQGTQVTVSS
Consider B15, for which the % inh in assay [9] was found to be 10%; in assay [5], 94%; in assay [1], 6%; in assay [2] it was 78%.

B16: VHH 12A08 (VHH, not shown: small tags and cut ends)
VHH: EVQLVESGRGLVQAGGSLRLSCAASGSIFSINAMLWYRQAPGKQRELVAAITSGGSTNYADSVKGRFTISRDNAKNTVYLQMNSLKPEDTAVYYCAADSDYSSDYYYWGQGTQVTVSS
As for B16, the % inh in assay [5] amounted to 0%; in assay [1], 2%; in assay [2] it was 98%.

B17: VHH 24B05 (VHH, not shown: small tags and cut ends)
VHH: EVQLVESGGGLVQPGGSLRLSCAASGFTLDYYAIGWFRQAPGKEWEGVSCISSSDGSTYYADSVKGRFTISRDNAKNTVYLQMNSLKPEDTAVYYCATDSIVCGSYYGMDYWGKGTQVTVSS
B17: the IC50 in [8] turned out to be 1 nM; in assay [4], 1.1 nM. The % inh in [5] was 102%; in assay [2] it was 97%.

B18: VHH 13A02 (VHH, not shown: small tags and cut ends)
VHH: EVQLVESGGGLVQAGGSLRLSCAASGGTFSSYSMGWFRQAPGKEREFIAAINWNGDSTYYEDSVKGRFTVSRDNAKNTVYLQMNSLKPEDTAVYYCAATGWGRAYEQAYEYDVWGQGTQVTVSS
As for B18, the IC50 in [8] was 4.1 nM; in [4], 23 nM. For the same molecule, the % inh in assay [5] stood at 96%; in assay [2], 91%.
